Target: T1, human CD20 on Raji cells (human, UniProt P11836 1-297)
T1 construct: whole, on cells; also called Raji (CD20+/CD3-细胞)
T1 sequence (looked up): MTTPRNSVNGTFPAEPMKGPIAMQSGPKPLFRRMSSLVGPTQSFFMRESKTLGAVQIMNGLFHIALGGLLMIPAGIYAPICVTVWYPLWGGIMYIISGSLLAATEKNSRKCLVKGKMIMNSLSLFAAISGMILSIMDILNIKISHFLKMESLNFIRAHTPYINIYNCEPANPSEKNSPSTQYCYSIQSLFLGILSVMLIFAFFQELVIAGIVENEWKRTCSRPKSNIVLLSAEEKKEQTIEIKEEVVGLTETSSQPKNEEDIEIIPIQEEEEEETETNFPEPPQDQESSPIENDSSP
Experiment: FACS, simultaneous binding: Calcein-AM Raji and FarRed Jurkat cells mixed 1:1, percent double-positive cells

binding result: binds
B1: W3278-U2T3.F18R-1.uIgG4.SP (bispecific antibody)
chain 1: QVQLQQPGAELVKPGASVKMSCKASGYTFTSYNMHWVKQTPGRGLEWIGAIYPGNGDTSYNQKFKGKATLTADKSSSTAYMQLSSLTSEDSAVYYCARSTYYGGDWYFNVWGAGTTVTVSAASTKGPSVFPLAPCSRSTSESTAALGCLVKDYFPEPVTVSWNSGALTSGVHTFPAVLQSSGLYSLSSVVTVPSSSLGTKTYTCNVDHKPSNTKVDKRVGGGGSGGGGSQVQLVQSGAEVKKPGSSVKVSCKASGFAFTDYYIHWVRQAPGQGLEWMGWISPGNVNTKYNENFKGRVTITADKSTSTAYMELSSLRSEDTAVYYCARDGYSLYYFDYWGQGTLVTVLEDLKNVFPPEVAVFEPSEAEISHTQKATLVCLATGFYPDHVELSWWVNGKEVHSGVCTDPQPLKEQPALQDSRYALSSRLRVSATFWQNPRNHFRCQVQFYGLSENDEWTQDRAKPVTQIVSAEAWGRYGPPCPPCPAPEFLGGPSVFLFPPKPKDTLMISRTPEVTCVVVDVSQEDPEVQFNWYVDGVEVHNAKTKPREEQFNSTYRVVSVLTVLHQDWLNGKEYKCKVSNKGLPSSIEKTISKAKGQPREPQVYTLPPCQEEMTKNQVSLWCLVKGFYPSDIAVEWESNGQPENNYKTTPPVLDSDGSFFLYSRLTVDKSRWQEGNVFSCSVMHEALHNHYTQKSLSLSLG
chain 2: QVQLQQPGAELVKPGASVKMSCKASGYTFTSYNMHWVKQTPGRGLEWIGAIYPGNGDTSYNQKFKGKATLTADKSSSTAYMQLSSLTSEDSAVYYCARSTYYGGDWYFNVWGAGTTVTVSAASTKGPSVFPLAPCSRSTSESTAALGCLVKDYFPEPVTVSWNSGALTSGVHTFPAVLQSSGLYSLSSVVTVPSSSLGTKTYTCNVDHKPSNTKVDKRVESKYGPPCPPCPAPEFLGGPSVFLFPPKPKDTLMISRTPEVTCVVVDVSQEDPEVQFNWYVDGVEVHNAKTKPREEQFNSTYRVVSVLTVLHQDWLNGKEYKCKVSNKGLPSSIEKTISKAKGQPREPQVCTLPPSQEEMTKNQVSLSCAVKGFYPSDIAVEWESNGQPENNYKTTPPVLDSDGSFFLVSRLTVDKSRWQEGNVFSCSVMHEALHNHYTQKSLSLSLG
chain 3: QIVLSQSPAILSASPGEKVTMTCRASSSVSYIHWFQQKPGSSPKPWIYATSNLASGVPVRFSGSGSGTSYSLTISRVEAEDAATYYCQQWTSNPPTFGGGTKLEIKRTVAAPSVFIFPPSDEQLKSGTASVVCLLNNFYPREAKVQWKVDNALQSGNSQESVTEQDSKDSTYSLSSTLTLSKADYEKHKVYACEVTHQGLSSPVTKSFNRGEC
light: DIVMTQSPDSLAVSLGERATINCKSSQSLLNSRTRKNYLAWYQQKPGQPPKLLIYWASTRQSGVPDRFSGSGSGTDFTLTISSLQAEDVAVYYCTQSHTLRTFGGGTKVEIKPDIQNPDPAVYQLRDSKSSDKSVCLFTDFDSQTQVSQSKDSDVYITDKCVLDMRSMDFKSNSAVAWSQKSDFACANAFQNSIIPEDTFFPSPESS
notes: WuXiBody format F18R-1, human IgG4 with S228P and knobs-into-holes; also called WBP3278 lead Ab; W3278 lead Ab

— patent CN113975385A (dated 2022)
